Data taken from article PMC12462528, “Molecular basis of ParA ATPase activation by the CTPase ParB during bacterial chromosome segregation” (Nature Communications, 2025).

Legend:
[1] = target: T1, ParA-R238E (ParA*) R238E (Myxococcus xanthus) (UniProt Q1CVJ3); experiment: BLI; conditions: BLI: 25 mM HEPES/KOH pH 7.6, 100 mM KCl (150 or 500 mM where stated), 10 mM MgSO4, 1 mM DTT, 10 mM (so in the source) BSA, 0.01% Tween 20; temperature not stated
T1 sequence: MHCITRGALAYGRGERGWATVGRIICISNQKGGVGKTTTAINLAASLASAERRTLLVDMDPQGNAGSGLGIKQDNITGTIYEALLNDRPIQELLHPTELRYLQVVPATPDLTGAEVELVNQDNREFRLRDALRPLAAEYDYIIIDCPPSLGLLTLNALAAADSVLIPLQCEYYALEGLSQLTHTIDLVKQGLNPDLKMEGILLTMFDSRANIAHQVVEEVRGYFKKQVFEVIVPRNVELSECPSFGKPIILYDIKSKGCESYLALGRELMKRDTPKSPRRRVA

[2] = target: T2, ParB (Myxococcus xanthus) (UniProt Q1CVJ4); experiment: BLI; conditions: BLI: 25 mM HEPES/KOH pH 7.6, 100 mM KCl (150 or 500 mM where stated), 10 mM MgSO4, 1 mM DTT, 10 mM (so in the source) BSA, 0.01% Tween 20; temperature not stated
T2 sequence: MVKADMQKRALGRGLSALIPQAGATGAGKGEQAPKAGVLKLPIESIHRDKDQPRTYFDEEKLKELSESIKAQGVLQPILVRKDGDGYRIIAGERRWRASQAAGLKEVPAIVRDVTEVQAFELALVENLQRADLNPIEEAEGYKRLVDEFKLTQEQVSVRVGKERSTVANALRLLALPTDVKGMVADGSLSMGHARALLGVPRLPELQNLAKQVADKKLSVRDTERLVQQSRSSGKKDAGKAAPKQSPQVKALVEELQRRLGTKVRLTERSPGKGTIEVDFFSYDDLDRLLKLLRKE

[3] = target: T3, ParA (His6-ParA) (Myxococcus xanthus) (UniProt Q1CVJ3); experiment: BLI; conditions: BLI: 25 mM HEPES/KOH pH 7.6, 100 mM KCl (150 or 500 mM where stated), 10 mM MgSO4, 1 mM DTT, 10 mM (so in the source) BSA, 0.01% Tween 20; temperature not stated
T3 sequence: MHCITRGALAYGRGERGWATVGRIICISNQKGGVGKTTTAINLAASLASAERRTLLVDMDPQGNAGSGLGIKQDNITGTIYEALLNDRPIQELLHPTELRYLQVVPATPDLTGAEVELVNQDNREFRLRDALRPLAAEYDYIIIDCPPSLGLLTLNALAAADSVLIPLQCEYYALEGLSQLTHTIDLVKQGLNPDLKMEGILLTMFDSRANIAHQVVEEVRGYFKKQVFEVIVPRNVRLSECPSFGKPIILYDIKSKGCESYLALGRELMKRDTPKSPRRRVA

[4] = target: T4, ParB delta21 del1-21 (Myxococcus xanthus) (UniProt Q1CVJ4); experiment: BLI; conditions: BLI: 25 mM HEPES/KOH pH 7.6, 100 mM KCl (150 or 500 mM where stated), 10 mM MgSO4, 1 mM DTT, 10 mM (so in the source) BSA, 0.01% Tween 20; temperature not stated
T4 sequence: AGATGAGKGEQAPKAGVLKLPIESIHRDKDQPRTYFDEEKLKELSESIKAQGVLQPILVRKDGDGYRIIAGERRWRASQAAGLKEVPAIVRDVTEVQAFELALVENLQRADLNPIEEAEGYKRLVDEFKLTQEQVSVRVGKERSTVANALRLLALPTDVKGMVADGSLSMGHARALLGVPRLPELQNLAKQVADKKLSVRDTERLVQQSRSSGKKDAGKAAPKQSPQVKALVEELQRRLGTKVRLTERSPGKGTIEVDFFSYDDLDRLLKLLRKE

[5] = target: T5, ParA-D60A D60A (Myxococcus xanthus) (UniProt Q1CVJ3); experiment: BLI; conditions: BLI: 25 mM HEPES/KOH pH 7.6, 100 mM KCl (150 or 500 mM where stated), 10 mM MgSO4, 1 mM DTT, 10 mM (so in the source) BSA, 0.01% Tween 20; temperature not stated
T5 sequence: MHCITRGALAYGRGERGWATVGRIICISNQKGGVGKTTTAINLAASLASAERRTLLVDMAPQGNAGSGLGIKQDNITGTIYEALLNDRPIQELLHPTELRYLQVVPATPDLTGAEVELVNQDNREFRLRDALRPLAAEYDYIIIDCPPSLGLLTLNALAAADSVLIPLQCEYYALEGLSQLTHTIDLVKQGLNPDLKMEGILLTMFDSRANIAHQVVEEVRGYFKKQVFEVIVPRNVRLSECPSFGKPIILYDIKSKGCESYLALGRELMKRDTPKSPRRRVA

[6] = target: T6, ParB-Q52A (ParB*) Q52A (Myxococcus xanthus) (UniProt Q1CVJ4); experiment: BLI; conditions: BLI: 25 mM HEPES/KOH pH 7.6, 100 mM KCl (150 or 500 mM where stated), 10 mM MgSO4, 1 mM DTT, 10 mM (so in the source) BSA, 0.01% Tween 20; temperature not stated
T6 sequence: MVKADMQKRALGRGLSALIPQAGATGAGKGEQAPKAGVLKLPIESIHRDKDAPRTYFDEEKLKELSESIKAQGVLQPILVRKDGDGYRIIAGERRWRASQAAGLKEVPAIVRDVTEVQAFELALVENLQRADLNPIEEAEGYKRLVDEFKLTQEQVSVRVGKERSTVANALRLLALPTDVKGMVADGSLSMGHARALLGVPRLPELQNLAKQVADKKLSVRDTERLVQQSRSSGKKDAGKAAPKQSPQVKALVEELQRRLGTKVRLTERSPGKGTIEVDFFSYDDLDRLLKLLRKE

[7] = target: the molecule itself; experiment: SEC; ParA proteins at 2.5 mg/mL (75 µM) in 25 mM Tris/HCl, 200 mM KCl, 5 mM MgSO4, 2 mM DTT, pH 7.4; Superdex 75 3.2/300; monomer to dimer
ParB-Q52A = target: T7, ParB-Q52A (Myxococcus xanthus DK1622, UniProt Q1CVJ4 1-296, Q52A); experiment: BLI; ParB-Q52A (10 µM) loaded on closed parS DNA on the biosensor; ParA variants (5 µM) in solution with ATP (1 mM) and 500 mM KCl; conditions: both partners purified
T7 construct: ParB of Myxococcus xanthus DK1622, variant lacking CTPase activity; Closed clamps formed with CTP and parS DNA; also called CTP hydrolysis-deficient ParB variant; source: E. coli Rosetta(DE3)pLysS, purified (as wild-type ParB)
T7 sequence (looked up): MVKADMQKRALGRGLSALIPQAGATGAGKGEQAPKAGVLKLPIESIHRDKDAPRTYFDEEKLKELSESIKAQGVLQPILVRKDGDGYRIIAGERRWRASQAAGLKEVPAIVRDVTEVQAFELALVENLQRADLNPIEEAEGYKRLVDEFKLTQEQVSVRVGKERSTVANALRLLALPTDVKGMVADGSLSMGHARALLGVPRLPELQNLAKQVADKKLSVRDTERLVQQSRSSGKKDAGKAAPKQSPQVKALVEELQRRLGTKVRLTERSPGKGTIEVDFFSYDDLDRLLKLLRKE

Q: With “TCCGCTTGGCGTGAGTTCCTGACGCTTGGTGGGAAGGATGCGCGTGCTGATGCGTGCACCTCAGTGAAGTGGATGGCGCGGCTGCTCATGCGCGGGTTGCTCAGCGCCTGTTCCACGTGGAACGCGGGATGGATTGATGGTGGGCACGCGCGCAGCGCCGGAGAGTTCGCTGACGGCTCCGCGTTCAGGCTCGTGATGCGCTCATGGTTCATGGAGTGGTGAGTGCTCCACCGG (double strand) [234-bp parS fragment, closed on biosensor]” as the molecule, how does the binding [1] read?
A: no binding

Q: What about the binding [2] of the same molecule?
A: binds

Q: What about the Kd [3] of the same molecule?
A: 400 nM

Q: What about the binding [4] of the same molecule?
A: binds

Q: And the binding [5]?
A: binds

Q: What about the binding [6] of the same molecule?
A: binds

B1: ParA (wild type) (natural protein, Myxococcus xanthus DK1622, UniProt Q1CVJ3 1-283, looked up)
chain: MHCITRGALAYGRGERGWATVGRIICISNQKGGVGKTTTAINLAASLASAERRTLLVDMDPQGNAGSGLGIKQDNITGTIYEALLNDRPIQELLHPTELRYLQVVPATPDLTGAEVELVNQDNREFRLRDALRPLAAEYDYIIIDCPPSLGLLTLNALAAADSVLIPLQCEYYALEGLSQLTHTIDLVKQGLNPDLKMEGILLTMFDSRANIAHQVVEEVRGYFKKQVFEVIVPRNVRLSECPSFGKPIILYDIKSKGCESYLALGRELMKRDTPKSPRRRVA
notes: ParA of Myxococcus xanthus DK1622, translation product of ORF MXAN_7477; No tag cleavage step is described; also called His6-ParA; wild-type ParA; source: E. coli Rosetta(DE3)pLysS, purified (HisTrap HP, HiTrap Q HP)
Q: Does B1 bind [7]?
A: binds

Q: Does B1 bind (ParB-Q52A)?
A: binds
